Assay: label from the status in PepcDB records
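Note: failed if final PepcDB status was selected cloned or expressed and not failed if soluble or beyond.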

Row | Sequence | protein production
1 | QLSSFETCAEKEESANTTESAIFEYHCEMSFDPNLLHNNGHNGYPNGTSAALRETGVIEKLLTSYGFIQCSERQARLFFHCSQYNGNLQDLKVGDDVEFEVSSDRRTGKPIAVKLVKIKQEILPEERMNGQVVCAVPHNLESKSPAAPGQSPTGSVCYERNGEVFYLTYTPEDVEGNVQLETGDKINFVIDNNKHTGAVSARNIMLLKKKQARCQGVVCAMKEAFGFIERGDVVKEIFFHYSEFKGDLETLQPGDDVEFTIKDRNGKEVATDVRLLPQGTVIFEDISIEHFEGTVTKVIPKVPSKNQNDPLPGRIKVDFVIPKELPFGDKDTKSKVTLLEGDHVRFNISTDRRDKLERATNIEVLSNTFQFTNEAREMGVIAAMRDGFGFIKCVDRDVRMFFHFSEILDGNQLHIADEVEFTVVPDMLSAQRNHAIRIKKLPKGTVSFHSHSDHRFLGTVEKEATFSNPKTTSPNKGKEKEAEDGIIAYDDCGVKLTIAFQAKDVEGSTSPQIGDKVEFSISDKQRPGQQVATCVRLLGRNSNSKRLLGYVATLKDNFGFIETANHDKEIFFHYSEFSGDVDSLELGDMVEYSLSKGKGNKVSAEKVNKTHSVNGITEEADPTIYSGKVIRPLRSVDPTQTEYQGMIEIVEEGDMKGEVYPFGIVGMANKGDCLQKGESVKFQLCVLGQNAQTMAYNITPLRRATVECVKDQFGFINYEVGDSKKLFFHVKEVQDGIELQAGDEVEFSVILNQRTGKCSACNVWRVCEGPKAVAAPRPDRLVNRLKNITLDDASAPRLMVLRQPRGPDNSMGFGAERKIRQAGVID | not failed
2 | QNKKSGNPILPGFHADPEVLYSHQTKRYYIYPTSDGFPGWGGSYFKVFSSKNLKTWKEETVILEMGKNVSWANGNAWAPCIEEKKIDGKYKYFFYYSANPTTNKGKQIGVAVADSPTGPFTDLGKPIITSSPTGRGQQIDVDVFTDPVSGKSYLYWGNGYMAGAELNDDMLSIKEETTVVLTPKGGTLQTYAYREAPYVIYRKGIYYFFWSVDDTGSPNYHVVYGTAQSPLGPIEVAKEPIVLIQNPKEEIYGPAHNSILQVPGKDKWYIVYHRINKNHLNDGPGWHREVCIDRMEFNPDGTIKQVIPTP | not failed
3 | QNNYLQSLEVQVMLDTLRVIHNPLQDYALVALMKSPMFGFDEDELARLSLQKAEDKVHENLYEKLVNAQKMASSQKGLIHTALAEKLKQFMDILASWRLYAKTHSLYDLIWKIYNDRFYYDYVGALPNGPARQANLYALALRADQFEKSNFKGLSRFIRMIDQVLEAQ | failed
4 | QQMQAESGFVQHVGFKCDNCGIEPIQGVRWHCQDCPPEMSLDFCDSCSDCLHETDIHKEDHQLEPIYRS | not failed
5 | QRRLSIFVDGNNMFYAQQKNNWFFDPRRVLDYFTCDPTVRLINAFWYTGLKDSQDQRGFRDALISLGYTVRTKILKEYYDDVSGRYSQKANLDIEIVVDMFNTVDQYDQVILFSGDGDFERAIELLRSKNTHITVVSTEGMIARELRNATDCYIDLNNLRAEIEKT | failed
6 | QSGATAKVSVLYIGPMEAPADAAQRLGLPAGTQVLARRRLYFRNGTPVETASSYLPWDVVKDIPELFAENPGGGGIYARLEDHGHEFAEFVETLQARPASKAEASELALSPGAPVVHLIREARTTAGVVVEVCDTLMAADQFVFEYRIPAAD | failed
7 | QTEGLETVHIKGQRSYNAIATEKNGDYSSFAATVGTKIPASLREIPQSVSIITNQQVKDRNVDTFDQLARKTPGLRVLSNDDGRSSVYARGYEYSEYNIDGLPAQMQSINGTLPNLFAFDRVEVMRGPSGLFDSSGEMGGIVNLVRKRPTKAFQGHAAAGFGTHKQYKAEADVSGSLNSDGSVRGRVMAQTVGASPRPAEKNNRRETFYAAADWDINPDTVLGAGYLYQQRRLAPYNGLPADANNKLPSLPQHVFVGADWNKFKMHSHDVFADLKHYFGNGGYGKVGMRYSDRKADSNYTFAGSKLNNTGQADVAGLGTDIKQKAFAVDASYSRPFALGNTANEFVIGADYNRLRSTNEQGRSTLSKSVALDGFRALPYNGILQNARAGNKGFNHSVTEENLDETGLYAKTVFRPLEGLSLIAGGRVGHHKIESGDGKTLHKASKTKFTSYAGAVYDIDGSNSLYASASQLYTPQTSIGTDGKLLKPREGNQFEIGYKGSYMDDRLNTRVSFYRMKDKNAAAPLDSNNKKTRYAALGKRVMEGVETEISGAMTPKWQIHAGYSYLHSQIKTASNSRDEGIFLLMPKHSANLWTTYQVTSGLTIGGGVNA | failed
8 | QTQVNAEKKIQVEFVSANPTSSLHVGHGRGAAYGMTVANLLEATGAQVDREYYVNDAGRQMDILATSTYLRYLELLGQPLVFPKNAYQGDYVKEIAQSIIDKDGDAYVRSVADVYRNVPEDVQYAEELDSEGNKVVLSGDKEKHIDGLIANSQQLIGQGYRVFHQAALKAILDDIKDDLADFGVTFDQWFSEASLTQKIDEALQTLDQRGYLYEKEGNIWFKSTKFGDEKDRVVKRRNGQTTYFASDIAYHLDKLQRGYTHIVDIWGSDHHGYIARVKAAIDAMGYDSSKLTVLLVQFVSLWRGGEMVQMSSRSGQFVTLRELRQEVGNDAARFYYVMRKSEQHIDFDLDLAVSQSKDNAVYYIQYAHARICRMLEKANS | failed
9 | QVKSERSQKIFLEFVSANPTGPLHIGHARGAVFGDSLAKIARFLGHEVLCEYYVNDMGSQIRLLGLSVWLAYREHVLKESVTYPEVFYKGEYIIEIAKKANNDLEPSLLKENEETIIEVLSGYARDLMLLEIKDNLDALGIHFDSYASEKEVFKHKDAVFEQLEKANALYEKDSKIWLKSSLYQDESDRVLIKEDKSYTYLAGDIVYHDEKFKQDYTKYINIWGADHHGYIARVKASLEFLGYDSNKLEVLLAQMVRLLKDNEPYKMSKRAGNFILIKDVVDDVGKDALRFIFLSKRLDTHLEFDVNTLKKQDSSNPIYYIHYANSRIHTMLEKSPFSKEEVLQTP | failed
10 | QVSKTYYVSKPGTLISMMTEEEANSITHLTLTGKLNAEDFRHLRDEFPSLKVLDISNAEIKMYSGKAGTYPNGKFYIYMANFVPAYAFSNVVNGVTKGKQTLEKVILSEKIKNIEDAAFKGCDNLKICQIRKKTAPNLLPEALADSVTAIFIPLGSSDAYRFKNRWEHFAFIEGEPLETTIQVGAMGKLEDEIMKAGLQPRDINFLTIEGKLDNADFKLIRDYMPNLVSLDISKTNATTIPDFTFAQKKYLLKIKLPHNLKTIGQRVFSNCGRLAGTLELPASVTAIEFGAFMGCDNLRYVLATGDKITTLGDELFGNGVPSKLIYKK | not failed
11 | QYDPYKNPESAQTRRNTVLQQMYQDKNISKKEYDQAVATPVTDGLKELKQKSTYPKYMDNYLKQVISEVKQKTGKDIFTAGL | failed
12 | RAKLMEERETSLKDSVEVAFDAVRLIANNPNLSEAEAKQQVKAVLTNIRYGSDGYFFAYDAQGTNLVHPIQPELVGQNLWQLQDERGDFLIQ | failed
13 | RDKYYLITHGSQDPYWTSLFQGAKKAAEELKVDLQILAPPGANDVPKQVQFIESALATYPSGIATTIPSDTAFSKSLQRANKLNIPVIAVDTRPKDKTKNPYLVFLGSDNLLAGKKLGEKALELTPSAKRALVLNPQPGHIGLEKRAYGIKTILQDKGIFFEELDVGTDPNQVQSRVKSYFKIHPETNIIFCLTSQALDPLGQMLLHPDRYDFNYQPQVYSFDKTPNTVSLIHKKLVNYVMDQQPFLMGYLSITQLVLMNRYQLNPVNINTAM | not failed
14 | REHDFDDLKFEHFLASAAGAFPAFLEVAEKRIIGEGVLRAVKESMRWHRAENVHFGAFLLLVPLISSWDAGGMVDIAEAARNRLRRTDFRDSLSVLEAFRLSNARVVEAGELNLKDRKTEEEIAQKKINLYEWMKMAPEENLIARELVDGFKISIEGAKFLLSFGNSGKAVVELYYHLLSKFPDPLVIAKMGREYAEKITEWAEKARTEEERKELDEKLLKDGANPGTIADLTASSIFLALAEGWR | not failed
15 | REITLDDAALLQRFFVENPEYFHIVHGAAPQPDEARDEIDDALPAGWSYTHKWKIGYFDSEGRLLAFVSIVTDLLAQGVWHIGLFMLATPCHGSSLARQLHAELEAWAAGEGARWLRLSVVQDNARAQGFWNACGYAQVRTRDGIELGRLQHQVRIMIKPL | failed
16 | RGNLGQSQKVLIEFVSANPTGPLHVGHGRGAAFGATLGNVLKAAGYDVTLEYYVNDAGRQMNILAVSVWLRYLELAGEPIVFPANGYKGQYVYEIAQEIWSEQGNQFVHPWISVVENLPADEPEGGDKETYIDAIIARAQSLLGKDGFANFHQHALKTVLDDIKDDLQAFGVRFDSWFSEQSLFEDGSIEKGIQALKDRGHTYEREGALWFRATDFGDEKDRVLVRANGQTTYFASDVAYHWNKYDRGFDRVIDIFGADHHGYVTRIKTAVKALGHDESALDVILVQFAILYRGGDRVQMSTRSGSFVTLRELREEVGNDAARYFYVARKPEQHMDFDLDLAKSESSDNPVYYIQYAHARICSVLRQLKERGLKWDKDMGL | failed
17 | RISWVGEAVKTDGKKSYYKKVCIDAETLEVGDCVSVIPDDSSKPLYLARVTALWEDSSNGQMFHAHWFCAGTDTVLGATSDPLELFLVDECEDMQLSYIHSKVKVIYKAPSENWAMEGGMDPESLLEGDDGKTYFYQLWYDQDYARFESPPKTQPTEDNKFKFCVSCARLAEMRQKEIPRVLEQLEDLDSRVLYYSATKNGILYRVGDGVYLPPEAFTFNIKLSSPVKRPRKEPVDEDLYPEHYRKYSDYIKGSNLDAPEPYRIGRIKEIFCPKKSNGRPNETDIKIRVNKFYRPENTHKSTPASYHADINLLYWSDEEAVVDFKAVQGRCTVEYGEDLPECVQVYSMGGPNRFYFLEAYNAKSKSFEDPPNHARSP | failed
18 | RKFEGMKTVQLICIKMSCIMLFFVSGYAKGTQEEHTMQFGEEKTTYLLHLPKGYIQGKAYSLVVNFHGLGSAAIKHQHYCQLDAVADKEGFIAVYPQSYHQGWNAGLGFTSYIQGHDDIAYFNALLDTLEAAYSIDKNRIYVTGVSLGGSFTYRIACEMSKRIAAIASVSGLMSDSTLIYCTPERSVPVMHIHGTKDHIMRYTGMKQAFGAEEVVRLWALKDQCENKPDTVFVPNTSKKDHTSSILIKYTHCANGSEVWFYKIYNGGHTWPGAAKAFKLMGRKSKDFNG | failed
19 | RKIFTNKCERAGCRQREMMKLTCERCSRNFCIKHRHPLDHDCSGEGHPTS | not failed
20 | RKILDSKAIDLMNALMRLNQIRPGLQYKLLSQSGPVHAPVFTMSVDVDGTTYEASGPSKKTAKLHVAVKVLQAMGYPTGFDADI | not failed
21 | RLLRLKLSSLGVLKVFPNRDEAYKDIFKDLVDSNEILLLGYKGNALLSNSDYPSRLEILEEYSRGQKIAIKALLLSPQAKQYVKKRSVELGEKNLHRNHSRDIEDSIVNFRKVKENGILDVECRLFSEALKWSLLFSDKYILVSFYNNKVRVKLSPCFKLRRSSMLGWAFEKHFRDLWEKKSIDAFTSYTRPCVIVVVGGSFTGKSIISNHLSNKYQFSGVLSTDMVRNFFRISTRDRKTYQTSTYRMDDSELNIQKNNVSNMIEQMLEIYRSRREKIIIEGMHLTEDFLRNINKQDCLIIGLDNKRDINDRLDLKMKTTREEVSKKTEDEKKRINEIHYGIIECCKRNNFKVVEFQDIEDAKDKCEHLVEEFFTQRSKR | failed
22 | RLPEVAHLLARVHNSELLHRMLRKVGGQSVRPQDFIQQYLQDLPDDLRHHPLMARVLDELRGTAPTLPATDYRVCHGDLNHKNWLLSDRQQLYLVDWDSARFADPASDISMLLCEYVPLSDWQQWLSEYGETMTTALRTRVVWYAKINLLLNIKDNYYRNQYHQMNHEIIFLEELSQYEV | failed
23 | RLRHCNHHDPHGFYGWHETEAGSVIRTRQVGATQVNLLIDDTSHVMTPIGDDIFAIDLGHRERADYRLEVTWPDQEPQVKADPYYFLPTVG | failed
24 | RLSAREAIALLSDDFDRLPVAEGAYAPDGPLSWQGYDASRARATERTGEDESVVCGRARIDGTPAVLIAFEFGFLGGSLGERTGDRLEAAYTYARAHRLPVVSLVATGGSRMQEGMLALTQLQRVARQSALTRAAGLPQLAVLRDPTTGGGWATLGAGADVVLALPGVQVGFAGSRVRPPDADPAAYTAQAQLAAGSIDAVVRPQELRETVGLWLALLTAPSTEP | failed
